We go through one molecule from US20100221248A1.

Assay [1] deals with human FcγRIIIA, 158F 176F allele, soluble (human) (UniProt P08637). The assay is described as follows: SPR (Biacore T100), steady state, MBP-Fn3 immobilized, soluble FcR injected. A general note: Surface plasmon resonance follows binding to a sensor surface in real time, without labels.
In assay [2] the target is human FcγRIIIA, 158F 176V allele, soluble (human) (UniProt P08637). The assay is described as above.

B1: MBP-IIIA537 (designed binder, not shown: large carriers)
chain: LGENLYFQSVSDVPRDLEVVVATPTSLLINWDLPFSDSYRITYGETGGNSPVQGFTVPGTESIATISGLKPGVDYTITVYAVASSGSNSYPISINYRTEIDKPSQ
The Kd is the concentration at which binding is half-saturated. As for B1, the Kd was 4.9 µM in assay [1] and 3.9 µM in assay [2].
